We go through four molecules from US12385058B2, “Herbicide tolerance protein, encoding gene thereof and use thereof” (Beijing Dabeinong Biotechnology Co., Ltd., priority 2018, dated 2025).

Sequences and labels used below:
B1: ALT02M1-02: nucleotide sequence SEQ ID NO: 26 encoding ALT02M1, based on maize codon usage bias (nucleic acid)
DNA: ATGGAGACTGATAACGTGGAGCTGGCGCAGAGCAAGAGGAAGGTGGTTCTGGCTGAGCAGGGGTCGTTCTACATTGGGGGGCGGACTGTGACCGGGCCCGGCAAGTTCGACCCATCGAAGCCTGTCATTCCGTACTCTAACGAGGGCGCTACGTTCTACATCAACCAGATGTACGTGAATTTCCAGGCTCCCGTCCGCCCAAGGGGCCTCCCACTGGTGTTCTGGCACGGCGGGGGCCTGACAGGCCATATCTGGGAGTCCACTCCAGATGGCCGCCCAGGGTTCCAGACACTCTTCGTTCAGGACAGGCACACAGTGTACACTATTGATCAGCCAGGGAGGGGCAGGGGGAACATCCCTACCTTCAATGGCCCATTCGGGCAGCTGGAGGAGGAGTCCATCGTGAACACCGTCACGGCGAATTCCAGCAAGGAGGGGGCTTGGGTCAGGGACCGGCTCGGCCCGGCCCCAGGGCAGTTCTTCGAGAACTCTCAGTTCCCCCGGGGCTACGAGGATAATTACTTCAAGGAGATGGGCTTCTCACCATCCATCTCGTCTGACGAGATTGTCGATGCCGTGGTCAAGCTCGTTACCCACATCGGCCCTTGCGTTCTGGTGACGCATAGCGCTTCGGGCGTCCTCGGGATGAGGGTTGCTACACATGCGAAGAACGTTCGCGGCATCGTGGCTTACGAGCCGGCCACTTCCATTTTCCCCAAGGGCAAGGTGCCAGAGATCCCACCACTGGCCGACAAGAAGTCACAGATCTTCCCACCTTTCGAGATTCAGGAGTCCTACTTCAAGAAGCTCGCTAAGATCCCCATTCAGTTCGTGTTCGGCGACAACATTCCTAAGAATCCGAAGAGCGCGTACTGGTTCCTGGATTGGTGGCGCGTCACGCGCTACGCGCACTCTCTCTCACTGGAGGCTATCAACAAGCTCGGGGGCCAGGCCTCGCTCCTGGACCTCCCTACCGCTGGCCTGAGGGGGAACACCCATTTCCCGTTCACGGATCGGAACAATGTCCAGGTTGCGTCCCTCCTGAGCGATTTCCTCGGCAAGCACGGGCTGGATCAGAATGAGTCTAAGCTCGCTGCGGCGCTGGAGTGA
modifications: the ALT02M1-02 nucleotide sequence encoding the amino acid sequence corresponding to the herbicide tolerant protein ALT02M1 and based on the maize codon usage bias
B2: ALT02M3-02: nucleotide sequence SEQ ID NO: 34 encoding ALT02M3, based on maize codon usage bias (nucleic acid)
DNA: ATGGAGACTGATAACGTGGAGCTGGCGCAGAGCAAGAGGAAGGTGGTTCTGGCTGAGCAGGGGTCGTTCTACATTGGGGGGCGGACTGTGACCGGGCCCGGCAAGTTCGACCCATCGAAGCCTGTCATTCGGGCGTCTAACGAGGGCGCTACGTTCTACATCAACCAGATGTACGTGAATTTCCAGGCTCCCGTCCGCCCAAGGGGCCTCCCACTGGTGTTCTGGCACGGCGGGGGCCTGACAGGCCATATCTGGGAGTCCACTCCAGATGGCCGCCCAGGGTTCCAGACACTCTTCGTTCAGGACAGGCACACAGTGTACACTATTGATCAGCCAGGGAGGGGCAGGGGGAACATCCCTACCTTCAATGGCCCATTCGGGCAGCTGGAGGAGGAGTCCATCGTGAACACCGTCACGGCGAATGTGAGCAAGGAGCGGGCTTGGGTCAGGGACCGGCTCGGCCCGGCCCCAGGGCAGTTCTTCGAGAACTCTCAGTTCCCCCGGGGCTACGAGGATAATTACTTCAAGGAGATGGGCTTCTCACCATCCATCTCGTCTGACGAGATTGTCGATGCCGTGGTCAAGCTCGTTACCCACATCGGCCCTTGCGTTCTGGTGACGCATAGCGCTTCGGGCGTCCTCGGGATGAGGGTTGCTACACATGCGAAGAACGTTCGCGGCATCGTGGCTTACGAGCCGGCCACTTCCATTTTCCCCAAGGGCAAGGTGCCAGAGATCCCACCACTGGCCGACAAGAAGTCACAGATCTTCCCACCTTTCGAGATTCAGGAGTCCTACTTCAAGAAGCTCGCTAAGATCCCCATTCAGTTCGTGTTCGGCGACAACATTCCTAAGAATCCGAAGAGCGCGTACTGGTTCCTGGATTGGTGGCGCGTCACGCGCTACGCGCACTCTCTCTCACTGGAGGCTATCAACAAGCTCGGGGGCCAGGCCTCGCTCCTGGACCTCCCTACCGCTGGCCTGAGGGGGAACACCCATTTCCCGTTCACGGATCGGAACAATGTCCAGGTTGCGTCCCTCCTGAGCGATTTCCTCGGCAAGCACGGGCTGGATCAGAATGAGTCTAAGCTCGCTGCGGCGCTGGAGTGA
modifications: the ALT02M3-02 nucleotide sequence encoding the amino acid sequence corresponding to the herbicide tolerant protein ALT02M3 and based on the maize codon usage bias
B3: ALT02-02: nucleotide sequence SEQ ID NO: 22 encoding ALT02, based on maize codon usage bias (nucleic acid)
DNA: ATGGAGACTGATAACGTGGAGCTGGCGCAGAGCAAGAGGAAGGTGGTTCTGGCTGAGCAGGGGTCGTTCTACATTGGGGGGCGGACTGTGACCGGGCCCGGCAAGTTCGACCCATCGAAGCCTGTCATTCCGTACTCTAACGAGGGCGCTACGTTCTACATCAACCAGATGTACGTGAATTTCCAGGCTCCCGTCCGCCCAAGGGGCCTCCCACTGGTGTTCTGGCACGGCGGGGGCCTGACAGGCCATATCTGGGAGTCCACTCCAGATGGCCGCCCAGGGTTCCAGACACTCTTCGTTCAGGACAGGCACACAGTGTACACTATTGATCAGCCAGGGAGGGGCAGGGGGAACATCCCTACCTTCAATGGCCCATTCGGGCAGCTGGAGGAGGAGTCCATCGTGAACACCGTCACGGGCAATTCCAGCAAGGAGGGGGCTTGGGTCAGGGACCGGCTCGGCCCGGCCCCAGGGCAGTTCTTCGAGAACTCTCAGTTCCCCCGGGGCTACGAGGATAATTACTTCAAGGAGATGGGCTTCTCACCATCCATCTCGTCTGACGAGATTGTCGATGCCGTGGTCAAGCTCGTTACCCACATCGGCCCTTGCGTTCTGGTGACGCATAGCGCTTCGGGCGTCCTCGGGATGAGGGTTGCTACACATGCGAAGAACGTTCGCGGCATCGTGGCTTACGAGCCGGCCACTTCCATTTTCCCCAAGGGCAAGGTGCCAGAGATCCCACCACTGGCCGACAAGAAGTCACAGATCTTCCCACCTTTCGAGATTCAGGAGTCCTACTTCAAGAAGCTCGCTAAGATCCCCATTCAGTTCGTGTTCGGCGACAACATTCCTAAGAATCCGAAGAGCGCGTACTGGTTCCTGGATTGGTGGCGCGTCACGCGCTACGCGCACTCTCTCTCACTGGAGGCTATCAACAAGCTCGGGGGCCAGGCCTCGCTCCTGGACCTCCCTACCGCTGGCCTGAGGGGGAACACCCATTTCCCGTTCACGGATCGGAACAATGTCCAGGTTGCGTCCCTCCTGAGCGATTTCCTCGGCAAGCACGGGCTGGATCAGAATGAGTCTAAGCTCGCTGCGGCGCTGGAGTGA
modifications: the ALT02-02 nucleotide sequence encoding the amino acid sequence corresponding to the herbicide tolerant protein ALT02 and based on the maize codon usage bias
B4: ALT02M2-02: nucleotide sequence SEQ ID NO: 30 encoding ALT02M2, based on maize codon usage bias (nucleic acid)
DNA: ATGGAGACTGATAACGTGGAGCTGGCGCAGAGCAAGAGGAAGGTGGTTCTGGCTGAGCAGGGGTCGTTCTACATTGGGGGGCGGACTGTGACCGGGCCCGGCAAGTTCGACCCATCGAAGCCTGTCATTCCGTACTCTAACGAGGGCGCTACGTTCTACATCAACCAGATGTACGTGAATTTCCAGGCTCCCGTCCGCCCAAGGGGCCTCCCACTGGTGTTCTGGCACGGCGGGGGCCTGACAGGCCATATCTGGGAGTCCACTCCAGATGGCCGCCCAGGGTTCCAGACACTCTTCGTTCAGGACAGGCACACAGTGTACACTATTGATCAGCCAGGGAGGGGCAGGGGGAACATCCCTACCTTCAATGGCCCATTCGGGCAGCTGGAGGAGGAGTCCATCGTGAACACCGTCACGGGCAATGTGAGCAAGGAGGGGGCTTGGGTCAGGGACCGGCTCGGCCCGGCCCCAGGGCAGTTCTTCGAGAACTCTCAGTTCCCCCGGGGCTACGAGGATAATTACTTCAAGGAGATGGGCTTCTCACCATCCATCTCGTCTGACGAGATTGTCGATGCCGTGGTCAAGCTCGTTACCCACATCGGCCCTTGCGTTCTGGTGACGCATAGCGCTTCGGGCGTCCTCGGGATGAGGGTTGCTACACATGCGAAGAACGTTCGCGGCATCGTGGCTTACGAGCCGGCCACTTCCATTTTCCCCAAGGGCAAGGTGCCAGAGATCCCACCACTGGCCGACAAGAAGTCACAGATCTTCCCACCTTTCGAGATTCAGGAGTCCTACTTCAAGAAGCTCGCTAAGATCCCCATTCAGTTCGTGTTCGGCGACAACATTCCTAAGAATCCGAAGAGCGCGTACTGGTTCCTGGATTGGTGGCGCGTCACGCGCTACGCGCACTCTCTCTCACTGGAGGCTATCAACAAGCTCGGGGGCCAGGCCTCGCTCCTGGACCTCCCTACCGCTGGCCTGAGGGGGAACACCCATTTCCCGTTCACGGATCGGAACAATGTCCAGGTTGCGTCCCTCCTGAGCGATTTCCTCGGCAAGCACGGGCTGGATCAGAATGAGTCTAAGCTCGCTGCGGCGCTGGAGTGA
modifications: the ALT02M2-02 nucleotide sequence encoding the amino acid sequence corresponding to the herbicide tolerant protein ALT02M2 and based on the maize codon usage bias

This series relates to maize plants. The series is described as follows: Herbicide tolerance of transgenic maize T1 plants (spraying, damage degree). The series is classed as in vivo. Particulars: sprayed with tribenuron-methyl 144 g ai/ha, eight-fold field concentration. Here is the method:
The degree of damage caused by the herbicide was measured for each plant according to the plant growth status 3 days after spraying (3 DAT), 7 days after spraying (7 DAT), 14 days after spraying (14 DAT) and 21 days after spraying (21 DAT): a growth status equivalent to that of the untreated plants is defined as having a damage degree of 0%; the case where leaves are locally chlorotic and yellow but the normal plant growth is substantially not affected is defined as having a damage degree of 50%; and the case where the whole plant is purple and dying is defined as having a damage degree of 100%. The maize plants into which the ALT02M1-02 nucleotide sequence was introduced were of three strains in total (S15, S16 and S17), the maize plants into which the ALT02M2-02 nucleotide sequence was introduced were of three strains in total (S18, S19 and S20), the maize plants into which the ALT02M3-02 nucleotide sequence was introduced were of three strains in total (S21, S22 and S23), the maize plants into which the ALT02-02 nucleotide sequence was introduced were of three strains in total (S24, S25 and S26), the control maize plants were of two strains in total (S27 and S28), and the wild-type maize plants were of one strain in total (CK2); and 10-15 plants were selected from each strain and tested.
As to B1, the “herbicide tolerance compared with maize plants into which ALT02-02 was introduced” value is reported as “significantly increased tolerance to benzenesulfonic acid” and the “herbicide tolerance imparted to transgenic maize plants” value (from here on “herbicide tolerance imparted”) is listed as “impart transgenic maize plants with the tolerance to benzenesulfonic acid”. On the same counts, the results for B2 are “significantly increased tolerance to benzenesulfonic acid” and “impart transgenic maize plants with the tolerance to benzenesulfonic acid”.

Consider B3, for which the “herbicide tolerance imparted” value was “impart transgenic maize plants with the tolerance to benzenesulfonic acid”. Take B4: the “herbicide tolerance compared with maize plants into which ALT02-02 was introduced” value is on record as “significantly increased tolerance to benzenesulfonic acid” and the “herbicide tolerance imparted” value is reported as “impart transgenic maize plants with the tolerance to benzenesulfonic acid”.
